Assay results published in patent publication US20060051344A1.

How the values were obtained:
[1] = target: these two hybridoma culture supernatants; assay: competitive EIA against biotinylated goby urotensin II
[2] = target: monoclonal antibody AUII103-5-41a; assay: competitive EIA: unlabelled peptide displaces biotinylated goby urotensin II from captured antibody
[3] = target: monoclonal antibody AUII5-6-10a; assay: as above
[4] = target: monoclonal antibody AUII103-5-41a; assay: competitive EIA; ratio of the antigen levels giving (B/B0)=0.5 (0.68 nM / 17.4 nM)

IC50 [1]	human urotensin II level at (B/B0)=0.9 [1]	IC50 [2]	IC50 [3]	ratio of reactivity with human urotensin II to reactivity with porcine urotensin II-1 [4]	Binder
0.5 to 2 nM	0.2 nM	0.68 nM	1.2 nM	0.04 time	ETPDCFWKYCV [human urotensin II]
–	–	17.4 nM	–	–	GPTSECFWKYCV [porcine urotensin II-1]
